The source of these data is PMC10199097, “Molecular mechanism of hyperactivation conferred by a truncation of TRPA1” (Nature Communications, 2023).

First the molecules themselves.
B2: wild type (WT) human TRPA1 (Transient Receptor Potential Ankyrin subtype 1) (natural protein, UniProt O75762 1-1119, looked up)
chain: MKRSLRKMWRPGEKKEPQGVVYEDVPDDTEDFKESLKVVFEGSAYGLQNFNKQKKLKRCDDMDTFFLHYAAAEGQIELMEKITRDSSLEVLHEMDDYGNTPLHCAVEKNQIESVKFLLSRGANPNLRNFNMMAPLHIAVQGMNNEVMKVLLEHRTIDVNLEGENGNTAVIIACTTNNSEALQILLKKGAKPCKSNKWGCFPIHQAAFSGSKECMEIILRFGEEHGYSRQLHINFMNNGKATPLHLAVQNGDLEMIKMCLDNGAQIDPVEKGRCTAIHFAATQGATEIVKLMISSYSGSVDIVNTTDGCHETMLHRASLFDHHELADYLISVGADINKIDSEGRSPLILATASASWNIVNLLLSKGAQVDIKDNFGRNFLHLTVQQPYGLKNLRPEFMQMQQIKELVMDEDNDGCTPLHYACRQGGPGSVNNLLGFNVSIHSKSKDKKSPLHFAASYGRINTCQRLLQDISDTRLLNEGDLHGMTPLHLAAKNGHDKVVQLLLKKGALFLSDHNGWTALHHASMGGYTQTMKVILDTNLKCTDRLDEDGNTALHFAAREGHAKAVALLLSHNADIVLNKQQASFLHLALHNKRKEVVLTIIRSKRWDECLKIFSHNSPGNKCPITEMIEYLPECMKVLLDFCMLHSTEDKSCRDYYIEYNFKYLQCPLEFTKKTPTQDVIYEPLTALNAMVQNNRIELLNHPVCKEYLLMKWLAYGFRAHMMNLGSYCLGLIPMTILVVNIKPGMAFNSTGIINETSDHSEILDTTNSYLIKTCMILVFLSSIFGYCKEAGQIFQQKRNYFMDISNVLEWIIYTTGIIFVLPLFVEIPAHLQWQCGAIAVYFYWMNFLLYLQRFENCGIFIVMLEVILKTLLRSTVVFIFLLLAFGLSFYILLNLQDPFSSPLLSIIQTFSMMLGDINYRESFLEPYLRNELAHPVLSFAQLVSFTIFVPIVLMNLLIGLAVGDIAEVQKHASLKRIAMQVELHTSLEKKLPLWFLRKVDQKSTIVYPNKPRSGGMLFHIFCFLFCTGEIRQEIPNADKSLEMEILKQKYRLKDLTFLLEKQHELIKLIIQKMEIISETEDDDSHCSFQDRFKKEQMEQRNSRWNTVLRAVKAKTHHLEP
notes: human TRPA1, wild type, 1119 amino acids; Plasmid details are in the Supplementary Information; also called WT TRPA1; WT hTRPA1; source: HEK293T, transfected, in lysate (in intact cells for proximity biotinylation)

Series [1] addresses B2. The experiment in a line: pull-down; FLAG-MBP-WT and Strep-MBP-R919* hTRPA1 co-transfected; lysates tandem purified for Strep- then FLAG-tagged proteins; eluates probed with anti-MBP antibody, band intensities normalised to WT. To be noted: partners not purified.
Series [2] concerns the molecule itself. The experiment in a line: co-IP + SEC; GFP- and 3×FLAG-tagged subunits co-expressed in HEK293T cells; anti-FLAG immunoprecipitation, eluates analysed by fluorescence size exclusion chromatography (FSEC) of the GFP-tagged subunit; anti-FLAG blot of peak fractions.

B1: R919* human TRPA1 mutant (CRAMPT syndrome truncation) (domain or fragment, UniProt O75762 1-918, looked up)
chain: MKRSLRKMWRPGEKKEPQGVVYEDVPDDTEDFKESLKVVFEGSAYGLQNFNKQKKLKRCDDMDTFFLHYAAAEGQIELMEKITRDSSLEVLHEMDDYGNTPLHCAVEKNQIESVKFLLSRGANPNLRNFNMMAPLHIAVQGMNNEVMKVLLEHRTIDVNLEGENGNTAVIIACTTNNSEALQILLKKGAKPCKSNKWGCFPIHQAAFSGSKECMEIILRFGEEHGYSRQLHINFMNNGKATPLHLAVQNGDLEMIKMCLDNGAQIDPVEKGRCTAIHFAATQGATEIVKLMISSYSGSVDIVNTTDGCHETMLHRASLFDHHELADYLISVGADINKIDSEGRSPLILATASASWNIVNLLLSKGAQVDIKDNFGRNFLHLTVQQPYGLKNLRPEFMQMQQIKELVMDEDNDGCTPLHYACRQGGPGSVNNLLGFNVSIHSKSKDKKSPLHFAASYGRINTCQRLLQDISDTRLLNEGDLHGMTPLHLAAKNGHDKVVQLLLKKGALFLSDHNGWTALHHASMGGYTQTMKVILDTNLKCTDRLDEDGNTALHFAAREGHAKAVALLLSHNADIVLNKQQASFLHLALHNKRKEVVLTIIRSKRWDECLKIFSHNSPGNKCPITEMIEYLPECMKVLLDFCMLHSTEDKSCRDYYIEYNFKYLQCPLEFTKKTPTQDVIYEPLTALNAMVQNNRIELLNHPVCKEYLLMKWLAYGFRAHMMNLGSYCLGLIPMTILVVNIKPGMAFNSTGIINETSDHSEILDTTNSYLIKTCMILVFLSSIFGYCKEAGQIFQQKRNYFMDISNVLEWIIYTTGIIFVLPLFVEIPAHLQWQCGAIAVYFYWMNFLLYLQRFENCGIFIVMLEVILKTLLRSTVVFIFLLLAFGLSFYILLNLQDPFSSPLLSIIQTFSMMLGDINY
notes: human TRPA1 with the patients' nonsense mutation at R919 (c.2755C>T); lacks the final 201 of 1119 amino acids (second pore helix, S6 and the whole cytoplasmic C-terminus); also called R919* TRPA1; R919* hTRPA1; source: HEK293T, transfected, in lysate (in intact cells for proximity biotinylation)
B1: the “stoichiometry N” value in series [1] was 1.3 R919* subunits per WT subunit. B2: the “stoichiometry N” value in series [2] was determined as 4.
